Test results from IntAct's records for PubMed 25096571.

B1: Forkhead box protein P3 (Homo sapiens), Q9BZS1-1 (parent)
chain: MPNPRPGKPSAPSLALGPSPGASPSWRAAPKASDLLGARGPGGTFQGRDLRGGAHASSSSLNPMPPSQLQLPTLPLVMVAPSGARLGPLPHLQALLQDRPHFMHQLSTVDAHARTPVLQVHPLESPAMISLTPPTTATGVFSLKARPGLPPGINVASLEWVSREPALLCTFPNPSAPRKDSTLSAVPQSSYPLLANGVCKWPGCEKVFEEPEDFLKHCQADHLLDEKGRAQCLLQREMVQSLEQQLVLEKEKLSAMQAHLAGKMALTKASSVASSDKGSCCIVAAGSQGPVVPAWSGPREAPDSLFAVRRHLWGSHGNSTFPEFLHNMDYFKFHNMRPPFTYATLIRWAILEAPEKQRTLNEIYHWFTRMFAFFRNHPATWKNAIRHNLSLHKCFVRVESEKGAVWTVDELEFRKKRSQRPSRCSNPTPGP

Variants of: B1
Conditions: with PIM1, P11309-1

| Variant | effect of a mutation on the interaction |
| --- | --- |
| MPNPRPGKPSAPSLALGPSPGASPSWRAAPKASDLLGARGPGGTFQGRDLRGGAHASSSSLNPMPPSQLQLPTLPLVMVAPSGARLGPLPHLQALLQDRPHFMHQLSTVDAHARTPVLQVHPLESPAMISLTPPTTATGVFSLKARPGLPPGINVASLEWVSREPALLCTFPNPSAPRKDSTLSAVPQSSYPLLANGVCKWPGCEKVFEEPEDFLKHCQADHLLDEKGRAQCLLQREMVQSLEQQLVLEKEKLSAMQAHLAGKMALTKASSVASSDKGSCCIVAAGSQGPVVPAWSGPREAPDSLFAVRRHLWGSHGNSTFPEFLHNMDYFKFHNMRPPFTYATLIRWAILEAPEKQRTLNEIYHWFTRMFAFFRNHPATWKNAIRHNLSLHKCFVRVESEKGAVWTVDELEFRKKRSQRPARCSNPTPGP [S422A] | decreasing interaction strength |

Variants of: B1
Conditions: with PIM1, P11309-1
Remark: another data set of the same source

| Variant | effect of a mutation on the interaction |
| --- | --- |
| MPNPRPGKPSAPSLALGPSPGASPSWRAAPKASDLLGARGPGGTFQGRDLRGGAHASSSSLNPMPPSQLQLPTLPLVMVAPSGARLGPLPHLQALLQDRPHFMHQLSTVDAHARTPVLQVHPLESPAMISLTPPTTATGVFSLKARPGLPPGINVASLEWVSREPALLCTFPNPSAPRKDSTLSAVPQSSYPLLANGVCKWPGCEKVFEEPEDFLKHCQADHLLDEKGRAQCLLQREMVQSLEQQLVLEKEKLSAMQAHLAGKMALTKASSVASSDKGSCCIVAAGSQGPVVPAWSGPREAPDSLFAVRRHLWGSHGNSTFPEFLHNMDYFKFHNMRPPFTYATLIRWAILEAPEKQRTLNEIYHWFTRMFAFFRNHPATWKNAIRHNLSLHKCFVRVESEKGAVWTVDELEFRKKRAQRPSRCSNPTPGP [S418A] | decreasing interaction strength |
| MPNPRPGKPSAPSLALGPSPGASPSWRAAPKASDLLGARGPGGTFQGRDLRGGAHASSSSLNPMPPSQLQLPTLPLVMVAPSGARLGPLPHLQALLQDRPHFMHQLSTVDAHARTPVLQVHPLESPAMISLTPPTTATGVFSLKARPGLPPGINVASLEWVSREPALLCTFPNPSAPRKDSTLSAVPQSSYPLLANGVCKWPGCEKVFEEPEDFLKHCQADHLLDEKGRAQCLLQREMVQSLEQQLVLEKEKLSAMQAHLAGKMALTKASSVASSDKGSCCIVAAGSQGPVVPAWSGPREAPDSLFAVRRHLWGSHGNSTFPEFLHNMDYFKFHNMRPPFTYATLIRWAILEAPEKQRTLNEIYHWFTRMFAFFRNHPATWKNAIRHNLSLHKCFVRVESEKGAVWTVDELEFRKKRCQRPSRCSNPTPGP [S418C] | increasing interaction strength |
| MPNPRPGKPSAPSLALGPSPGASPSWRAAPKASDLLGARGPGGTFQGRDLRGGAHASSSSLNPMPPSQLQLPTLPLVMVAPSGARLGPLPHLQALLQDRPHFMHQLSTVDAHARTPVLQVHPLESPAMISLTPPTTATGVFSLKARPGLPPGINVASLEWVSREPALLCTFPNPSAPRKDSTLSAVPQSSYPLLANGVCKWPGCEKVFEEPEDFLKHCQADHLLDEKGRAQCLLQREMVQSLEQQLVLEKEKLSAMQAHLAGKMALTKASSVASSDKGSCCIVAAGSQGPVVPAWSGPREAPDSLFAVRRHLWGSHGNSTFPEFLHNMDYFKFHNMRPPFTYATLIRWAILEAPEKQRTLNEIYHWFTRMFAFFRNHPATWKNAIRHNLSLHKCFVRVESEKGAVWTVDELEFRKKRDQRPSRCSNPTPGP [S418D] | disrupting interaction strength |
| MPNPRPGKPSAPSLALGPSPGASPSWRAAPKASDLLGARGPGGTFQGRDLRGGAHASSSSLNPMPPSQLQLPTLPLVMVAPSGARLGPLPHLQALLQDRPHFMHQLSTVDAHARTPVLQVHPLESPAMISLTPPTTATGVFSLKARPGLPPGINVASLEWVSREPALLCTFPNPSAPRKDSTLSAVPQSSYPLLANGVCKWPGCEKVFEEPEDFLKHCQADHLLDEKGRAQCLLQREMVQSLEQQLVLEKEKLSAMQAHLAGKMALTKASSVASSDKGSCCIVAAGSQGPVVPAWSGPREAPDSLFAVRRHLWGSHGNSTFPEFLHNMDYFKFHNMRPPFTYATLIRWAILEAPEKQRTLNEIYHWFTRMFAFFRNHPATWKNAIRHNLSLHKCFVRVESEKGAVWTVDELEFRKKRGQRPSRCSNPTPGP [S418G] | increasing interaction strength |
